We go through 4 substances from US20250215108A1.

For experiment [1], the target named is SIRPγ on peripheral human CD3+ T cells (human) (UniProt Q9P1W8). Briefly: flow cytometry on peripheral human CD3+ T cells, 10 µg/ml; Exp 1 HV1.
For experiment [2] the target is unchanged. Briefly: flow cytometry on peripheral human CD3+ T cells, 10 µg/ml; Exp 1 HV2. (In general: Flow cytometry measures light scatter and fluorescence of single cells or particles in a stream.)
In experiment [3] the target is recombinant hSIRPa-His (Sino Biologicals, reference 11612-H08H) (human) (UniProt P78324). Briefly: SPR (Biacore 3000); SIRPa-His immobilised on a CM5 chip (500 RU), antibody injected; 3 min association, 10 min dissociation. (In general: In SPR one partner is held on a chip, and binding of the other changes the refractive index at the surface.)
recombinant hSIRPa-His (Sino Biologicals, reference 11612-H08H) (human), sequence (P78324 31-370, form in doubt): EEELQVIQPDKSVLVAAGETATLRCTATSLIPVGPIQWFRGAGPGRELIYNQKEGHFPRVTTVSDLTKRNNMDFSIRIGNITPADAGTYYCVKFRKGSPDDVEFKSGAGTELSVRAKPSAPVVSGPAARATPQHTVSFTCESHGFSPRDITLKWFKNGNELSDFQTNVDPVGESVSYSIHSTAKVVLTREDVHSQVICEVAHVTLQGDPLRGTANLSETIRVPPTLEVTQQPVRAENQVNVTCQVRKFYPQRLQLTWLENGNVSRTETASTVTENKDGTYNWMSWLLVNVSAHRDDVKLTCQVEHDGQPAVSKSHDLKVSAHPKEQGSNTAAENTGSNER
Experiment [4] deals with recombinant hSIRPa (Sino Biologicals, reference 10975-H08H) (human) (UniProt P78324). Briefly: ELISA (ED50), immobilized hSIRPa, anti-mouse Fc detection. Background: An ELISA detects its analyte on a solid surface through an enzyme-linked reagent.
recombinant hSIRPa (Sino Biologicals, reference 10975-H08H) (human), sequence (P78324 other isoform, or with tags, fused parts or gaps H08H H08H limits assumed): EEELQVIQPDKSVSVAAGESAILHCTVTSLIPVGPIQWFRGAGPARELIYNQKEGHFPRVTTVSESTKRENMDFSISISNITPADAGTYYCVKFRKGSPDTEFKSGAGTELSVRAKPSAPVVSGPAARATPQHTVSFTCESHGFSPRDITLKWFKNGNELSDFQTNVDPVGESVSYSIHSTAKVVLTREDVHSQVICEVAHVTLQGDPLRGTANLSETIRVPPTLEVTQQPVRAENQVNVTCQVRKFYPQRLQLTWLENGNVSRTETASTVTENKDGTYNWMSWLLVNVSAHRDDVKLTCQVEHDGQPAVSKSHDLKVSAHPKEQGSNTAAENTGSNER

“And” between values parts separate entries of the source, which are not always exact repeats. Identical values can stand only once.

SIRPγ on peripheral human CD3+ T cells (human), sequence (Q9P1W8 29-387): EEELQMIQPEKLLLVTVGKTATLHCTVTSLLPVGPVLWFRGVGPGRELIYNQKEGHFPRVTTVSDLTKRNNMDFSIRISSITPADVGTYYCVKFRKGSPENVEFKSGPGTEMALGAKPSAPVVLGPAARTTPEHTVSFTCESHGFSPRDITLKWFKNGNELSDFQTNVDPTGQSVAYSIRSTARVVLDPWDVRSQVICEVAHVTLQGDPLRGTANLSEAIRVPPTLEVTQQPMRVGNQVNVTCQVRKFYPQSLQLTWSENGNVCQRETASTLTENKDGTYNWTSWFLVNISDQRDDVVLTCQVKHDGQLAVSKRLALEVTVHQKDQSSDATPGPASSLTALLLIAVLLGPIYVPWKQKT

As for anti-SIRPb antibody B4B6, the % of positive T-cells in experiment [1] stood at 0.87%; in experiment [2], 0.25%.
LSB2.20 (specific anti-SIRPγ antibody): the figures for the % of positive T-cells in experiment [1] and in experiment [2] were 91.4% and 98.4%, respectively.
What is called Kd is a measure of binding affinity in units of concentration. One may read the koff as a measure of how fast the partners let go of each other. A word on the kon: it is the rate constant with which the complex forms. With “anti-SIRPa antibody SE7C2 (Santa Cruz sc-23863)”, in experiment [3], the Kd is 1670 nM, the koff was determined as 0.01 s⁻¹ and the kon is 5980 M⁻¹ s⁻¹.
The EC50 is the concentration at which the effect is half-maximal. With “SE5A5 (BioLegend BLE323802), antibody recognizing SIRP a/B”, in experiment [3], the Kd was 38.7 nM, the koff amounted to 0.000949 s⁻¹ and the kon is 24500 M⁻¹ s⁻¹. Besides, the EC50 in experiment [4] is 0.16 nM and 0.024 µg/mL. In addition, the % of positive T-cells in experiment [1] worked out at 3.72%. Moreover, in experiment [2], the % of positive T-cells turned out to be 7.69%.
